This assay addresses T1, Epidermal Growth Factor Receptor (EGFR) protein (UniProt P00533 25-1210, limits assumed).
T1 construct: Bought protein; also called EGFR proteins; antigen EGFR
The experiment in a line: SPR, Biacore3000, CM5 chip, HBS-EP pH 7.4, mean of three runs.

Procedure: The binding affinity between antibody and EGFR was assayed with Biacore3000 equipment. The EGFR proteins diluted with 10 mmol/L NaAc and having different pH (4.0, 4.5, 5.0 and 5.5) were formulated, and were pre-concentrated on CM5 chip to select the NaAc diluted protein with optimum pH. […] The binding affinities were computed with the software attached by Biacore3000.

B1: anti-EGFR humanized antibody L4-H3 (antibody, human IgG1, kappa, V domains shown)
VH: VKLLEQSGAEVKKPGASVKVSCKASGFSLTNYGVHWVRQAPGQRLEWMGVIWSGGNTDYNTPFTSRVTITRDTSATTAYMGLSSLRPEDTAVYYCARALTYYDYEFAYWGQGTLVTVSS
VL: ELVMTQSPSSLSASVGDRVNIACRASQSIGTNIHWYQQKPGKAPRLLIKYASESISGVPSRFSGSGSGTDFTLTISSLQPEDFAIYYCQQNNNWPTTFGGGTKVEIKR
notes: also called antibody of the present invention; the antibody
Consider B1, for which the Kd came out at 2.75 nM.

For the origin of these results see patent US20130330362A1 (HEFEI TAIRUI BIOTECHNOLOGY, published 2013).
